Measurements: the supplement of paper PMC9112550, “Optimization of the antimicrobial peptide Bac7 by deep mutational scanning” (BMC Biology, 2022)

tested on: Escherichia coli TOP10; experiment: shrunken log2 fold change of peptide-encoding DNA abundance (4.5 h post-induction vs induction); higher = less antimicrobial activity (less host growth inhibition); conditions: time post-induction: 4.5 h; library: site-saturation at positions 5, 18, 19, 20
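Note: peptides expressed intracellularly from a pBAD plasmid library in pooled LB shake-flask culture, induced with 0.3% L-arabinose, DNA abundance read by NGS, three biological replicates, DESeq2 with apeglm shrinkage.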

| Sequence | shrunken log2 fold change |
| --- | --- |
| RRIRTRPPRLPRPRPRPHHAPRP | -0.00367 |
| RRIRARPPRLPRPRPRPQHKPRP | 0.292 |
| RRIRVRPPRLPRPRPRPGNHPRP | -0.245 |
| RRIRARPPRLPRPRPRPGQKPRP | -0.0844 |
| RRIRFRPPRLPRPRPRPMHWPRP | 0.325 |
| RRIRDRPPRLPRPRPRPLEYPRP | 0.061 |
| RRIRERPPRLPRPRPRPLDMPRP | -0.16 |
| RRIRFRPPRLPRPRPRPCNQPRP | -0.649 |
| RRIRERPPRLPRPRPRPINAPRP | -0.129 |
| RRIRVRPPRLPRPRPRPMHWPRP | 0.253 |
| RRIRQRPPRLPRPRPRPYHVPRP | -0.00172 |
| RRIRFRPPRLPRPRPRPYTTPRP | -0.333 |
| RRIRDRPPRLPRPRPRPRTQPRP | 0.168 |
| RRIRIRPPRLPRPRPRPNIFPRP | -0.319 |
| RRIRIRPPRLPRPRPRPDLVPRP | -0.201 |
| RRIRDRPPRLPRPRPRPDAQPRP | 1.21 |
| RRIRWRPPRLPRPRPRPINSPRP | -0.498 |
| RRIRQRPPRLPRPRPRPMNMPRP | 0.0227 |
| RRIRWRPPRLPRPRPRPYVTPRP | -0.385 |
| RRIRERPPRLPRPRPRPISKPRP | -0.575 |
| RRIRYRPPRLPRPRPRPTLAPRP | 0.239 |
| RRIRDRPPRLPRPRPRPFARPRP | 0.579 |

| Sequence | shrunken log2 fold change |
| --- | --- |
| RRIRDRPPRLPRPRPRPDVKPRP | -0.00748 |
| RRIRIRPPRLPRPRPRPEWHPRP | -0.514 |
| RRIRNRPPRLPRPRPRPWEEPRP | -0.00133 |
| RRIRDRPPRLPRPRPRPKYLPRP | -0.131 |
| RRIRTRPPRLPRPRPRPEDWPRP | 0.386 |
| RRIRLRPPRLPRPRPRPRTSPRP | 0.288 |
| RRIRPRPPRLPRPRPRPYILPRP | -0.588 |
| RRIRIRPPRLPRPRPRPASTPRP | -0.0836 |
| RRIRERPPRLPRPRPRPVLRPRP | -0.156 |
| RRIRARPPRLPRPRPRPCGGPRP | 0.425 |
| RRIRGRPPRLPRPRPRPVSWPRP | 1.06 |
| RRIRMRPPRLPRPRPRPVNWPRP | 0.223 |
| RRIRNRPPRLPRPRPRPMKTPRP | -0.0393 |
| RRIRERPPRLPRPRPRPFKKPRP | -0.0194 |
| RRIRPRPPRLPRPRPRPWFLPRP | -0.458 |
| RRIRIRPPRLPRPRPRPFGMPRP | -0.498 |
| RRIRCRPPRLPRPRPRPFEPPRP | -0.0564 |
| RRIRIRPPRLPRPRPRPCSWPRP | -0.31 |
| RRIRYRPPRLPRPRPRPHNLPRP | -0.131 |
| RRIRERPPRLPRPRPRPIFHPRP | -0.395 |
| RRIRHRPPRLPRPRPRPCITPRP | -0.472 |
| RRIRVRPPRLPRPRPRPDCYPRP | -0.15 |

| Sequence | shrunken log2 fold change |
| --- | --- |
| RRIRPRPPRLPRPRPRPWNRPRP | 0.122 |
| RRIRWRPPRLPRPRPRPIGRPRP | -0.0158 |
| RRIRERPPRLPRPRPRPFCFPRP | -0.106 |
| RRIRPRPPRLPRPRPRPSCRPRP | -0.129 |
| RRIRKRPPRLPRPRPRPFAPPRP | 0.792 |
| RRIRLRPPRLPRPRPRPQQPPRP | -0.208 |
| RRIRIRPPRLPRPRPRPREWPRP | 0.0237 |
| RRIRVRPPRLPRPRPRPCMTPRP | 0.0668 |
| RRIRPRPPRLPRPRPRPEFFPRP | -0.00122 |
| RRIRDRPPRLPRPRPRPLFSPRP | 0.0525 |
| RRIRARPPRLPRPRPRPCTAPRP | -0.147 |
| RRIRWRPPRLPRPRPRPLPFPRP | -0.387 |
| RRIRQRPPRLPRPRPRPWNTPRP | -0.169 |
| RRIRCRPPRLPRPRPRPRFDPRP | 0.136 |
| RRIRIRPPRLPRPRPRPRQKPRP | -0.028 |
| RRIRKRPPRLPRPRPRPCYSPRP | -0.178 |
| RRIRGRPPRLPRPRPRPRVKPRP | 0.856 |
| RRIRGRPPRLPRPRPRPFLSPRP | 0.162 |
| RRIRCRPPRLPRPRPRPCAHPRP | 0.0631 |
| RRIRARPPRLPRPRPRPPRNPRP | 0.965 |
| RRIRFRPPRLPRPRPRPQTDPRP | -0.21 |
| RRIRERPPRLPRPRPRPVRRPRP | -0.172 |

| Sequence | shrunken log2 fold change |
| --- | --- |
| RRIRQRPPRLPRPRPRPGHCPRP | 0.217 |
| RRIRKRPPRLPRPRPRPIQSPRP | -0.0332 |
| RRIRCRPPRLPRPRPRPSNYPRP | -0.348 |
| RRIRVRPPRLPRPRPRPHTVPRP | -0.448 |
| RRIRVRPPRLPRPRPRPVMHPRP | -0.0179 |
| RRIRLRPPRLPRPRPRPCQIPRP | -0.102 |
| RRIRKRPPRLPRPRPRPPVVPRP | 0.453 |
| RRIRNRPPRLPRPRPRPFCAPRP | -0.0161 |
| RRIRVRPPRLPRPRPRPEFNPRP | 0.203 |
| RRIRCRPPRLPRPRPRPWMLPRP | -0.419 |
| RRIRGRPPRLPRPRPRPFPNPRP | 0.26 |
| RRIRLRPPRLPRPRPRPGCCPRP | 0.387 |
| RRIRPRPPRLPRPRPRPIKWPRP | 0.0716 |
| RRIRTRPPRLPRPRPRPCAHPRP | -0.209 |
| RRIRMRPPRLPRPRPRPFMIPRP | -0.0423 |
| RRIRWRPPRLPRPRPRPDSYPRP | 0.00709 |
| RRIRSRPPRLPRPRPRPIDNPRP | -0.163 |
| RRIRVRPPRLPRPRPRPDAPPRP | 0.422 |
| RRIRPRPPRLPRPRPRPRAFPRP | 0.32 |
| RRIRKRPPRLPRPRPRPEYGPRP | 0.087 |
| RRIRWRPPRLPRPRPRPDDNPRP | 0.174 |
| RRIRIRPPRLPRPRPRPGKLPRP | -0.0215 |

| Sequence | shrunken log2 fold change |
| --- | --- |
| RRIRIRPPRLPRPRPRPWDAPRP | -0.00869 |
| RRIRTRPPRLPRPRPRPCWVPRP | -0.42 |
| RRIRHRPPRLPRPRPRPLVAPRP | -0.103 |
| RRIRYRPPRLPRPRPRPCTFPRP | -0.208 |
| RRIRFRPPRLPRPRPRPVQHPRP | -0.044 |
| RRIRCRPPRLPRPRPRPAGHPRP | 0.0641 |
| RRIRRRPPRLPRPRPRPSVFPRP | 0.141 |
| RRIRWRPPRLPRPRPRPLMFPRP | -0.122 |
| RRIRLRPPRLPRPRPRPETSPRP | -0.0221 |
| RRIRIRPPRLPRPRPRPGYTPRP | -0.206 |
| RRIRKRPPRLPRPRPRPLRPPRP | 1.01 |
| RRIRERPPRLPRPRPRPIAVPRP | 0.0116 |
| RRIRQRPPRLPRPRPRPEMSPRP | 0.161 |
| RRIRHRPPRLPRPRPRPPHAPRP | 0.334 |
| RRIRCRPPRLPRPRPRPGSNPRP | -0.915 |
| RRIRWRPPRLPRPRPRPICAPRP | 0.291 |
| RRIRTRPPRLPRPRPRPFPRPRP | 0.0242 |
| RRIRKRPPRLPRPRPRPIRYPRP | -0.118 |
| RRIRLRPPRLPRPRPRPAEMPRP | -0.111 |
| RRIRWRPPRLPRPRPRPCTKPRP | 0.311 |
| RRIRIRPPRLPRPRPRPLRFPRP | -0.21 |
